In PMC11853025, “Determining Ligand Binding and Specificity Within the β2-Integrin Family with a Novel Assay Platform” (Biomolecules, 2025) one finds binding result and Kd data, which are given here for four molecules.

What all share (settings): both partners purified
The target in assay [1] is T1, ICAM-2 (recombinant, Sino Biological 10332-H03H) (UniProt P13598 25-223).
T1 construct: ICAM-2, bought recombinant protein; also called intercellular adhesion molecule 2; source: bought: Sino Biological
T1 sequence (looked up): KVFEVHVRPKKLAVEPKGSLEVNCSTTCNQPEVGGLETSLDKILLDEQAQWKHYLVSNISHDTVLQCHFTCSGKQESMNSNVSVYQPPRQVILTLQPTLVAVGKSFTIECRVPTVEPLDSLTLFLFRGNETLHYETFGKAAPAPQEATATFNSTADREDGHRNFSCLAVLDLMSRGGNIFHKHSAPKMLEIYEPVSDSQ
The assay is described as follows: SPR; ICAM-1, ICAM-2, ICAM-3 amine-coupled to a CM5 chip; αI domains injected; 25 °C; HBST with 1 mM MgCl2. (SPR reads the build-up and loss of mass on a sensor chip optically.)

The target in another assay is T2, C3b (UniProt P01024 23-667; P01024 749-1663).
T2 construct: A seed of about 100 RU C3b was amine-coupled; further C3b was deposited via its thioester moiety to about 5000 RU; also called C3b fragment; C3-derived opsonin; source: bought: Complement Technology (C3b, C3); deposited on the SPR chip from C3 by the FB/FD convertase
The assay is described as follows: SPR; C3b deposited on a CM5 chip (amine-coupled seed, then convertase-mediated deposition to about 5000 RU), iC3b and C3dg made from it on the chip; αI domains injected as dilution series, 120 s; Biacore T200, 25 °C; HBST (10 mM HEPES, 150 mM NaCl, 0.005% Tween-20, pH 7.4) with 1 mM MgCl2; Langmuir 1:1 fit, KD calculated.

For another assay, the target named is T3, C3dg (UniProt P01024 955-1303).
T3 construct: Held on the chip through the thioester-mediated deposit of its parent C3b; also called C3dg fragment; source: made on the SPR chip by co-injecting CR1 and factor I
Described as above.

Assay [2] deals with T4, ICAM-1 (recombinant, Sino Biological 10346-H03H) (UniProt P05362 28-480).
T4 construct: ICAM-1, bought recombinant protein; also called intercellular adhesion molecule 1; source: bought: Sino Biological
T4 sequence (P05362 28-480): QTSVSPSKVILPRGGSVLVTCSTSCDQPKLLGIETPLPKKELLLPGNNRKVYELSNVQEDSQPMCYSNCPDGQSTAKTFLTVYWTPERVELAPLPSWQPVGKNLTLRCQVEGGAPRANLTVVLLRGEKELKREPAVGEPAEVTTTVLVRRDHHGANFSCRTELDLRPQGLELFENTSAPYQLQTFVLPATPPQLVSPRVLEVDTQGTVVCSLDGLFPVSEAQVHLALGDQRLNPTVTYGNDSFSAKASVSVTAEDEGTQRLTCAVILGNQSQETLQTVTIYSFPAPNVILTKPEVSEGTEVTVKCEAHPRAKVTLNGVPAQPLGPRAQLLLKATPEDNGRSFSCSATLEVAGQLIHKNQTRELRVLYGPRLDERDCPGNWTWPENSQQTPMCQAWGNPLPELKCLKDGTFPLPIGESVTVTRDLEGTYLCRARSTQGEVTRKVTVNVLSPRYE
The assay is described as follows: SPR; ICAM-1, ICAM-2, ICAM-3 amine-coupled to a CM5 chip; αI domains injected; 25 °C; HBST with 1 mM MgCl2.

B1: CR3 αMI domain, high-affinity (HA) variant p.I332G (domain or fragment)
chain: QEDSDIAFLIDGSGSIIPHDFRRMKEFVSTVMEQLKKSKTLFSLMQYSEEFRIHFTFKEFQNNPNPRSLVKPITQLLGRTHTATGIRKVVRELFNITNGARKNAFKILVVITDGEKFGDPLGYEDVIPEADREGVIRYVIGVGDAFRSEKSRQELNTIASKPPRDHVFQVNNFEALKTIQNQLREKGFA
notes: integrin alpha-M (CD11b) αI domain, Q146-A334; beads captured by the His-tag; also called αMI HA; HA αMI
Broadly, the Kd is the concentration at which binding is half-saturated. Take B1: the binding result in assay [1] was “binds”. The values for the Kd in the assay with C3b and with C3dg were 11.6 µM and 1.4 µM, respectively.

B2: CR4 αXI domain, wild type (WT) (domain or fragment, UniProt P20702 148-336, looked up)
chain: QEQDIVFLIDGSGSISSRNFATMMNFVRAVISQFQRPSTQFSLMQFSNKFQTHFTFEEFRRSSNPLSLLASVHQLQGFTYTATAIQNVVHRLFHASYGARRDAAKILIVITDGKKEGDSLDYKDVIPMADAAGIIRYAIGVGLAFQNRNSWKELNDIASKPSQEHIFKVEDFDALKDIQNQLKEKIFAI
notes: integrin alpha-X (CD11c) αI domain, Q148-I336; also called αXI WT; WT αXI
With B2, the Kd was 55.5 µM in the assay with C3b and 30.4 µM with C3dg.

B3: CR4 αXI domain, high-affinity (HA) variant p.I333G (domain or fragment, UniProt P20702 148-336, looked up)
chain: QEQDIVFLIDGSGSISSRNFATMMNFVRAVISQFQRPSTQFSLMQFSNKFQTHFTFEEFRRSSNPLSLLASVHQLQGFTYTATAIQNVVHRLFHASYGARRDAAKILIVITDGKKEGDSLDYKDVIPMADAAGIIRYAIGVGLAFQNRNSWKELNDIASKPSQEHIFKVEDFDALKDIQNQLKEKGFAI
notes: integrin alpha-X (CD11c) αI domain, Q148-I336; Addgene numbers tied to αLI and αXI by the order of the sentence; also called αXI HA; HA αXI
As for B3, the Kd with C3b was 2.2 µM; with C3dg, 3.8 µM.

B4: CD11d αDI domain, high-affinity (HA) variant p.I332G (domain or fragment, UniProt Q13349 145-334, looked up)
chain: PHQEMDIVFLIDGSGSIDQNDFNQMKGFVQAVMGQFEGTDTLFALMQYSNLLKIHFTFTQFRTSPSQQSLVDPIVQLKGLTFTATGILTVVTQLFHHKNGARKSAKKILIVITDGQKYKDPLEYSDVIPQAEKAGIIRYAIGVGHAFQGPTARQELNTISSAPPQDHVFKVDNFAALGSIQKQLQEKGYA
notes: integrin alpha-D (CD11d) αI domain, P145-A334; plasmid bought from ATG:Biosynthetics; also called αDI HA; HA αDI
Take B4: the binding result in assay [2] is given as “binds”.
